Measured values: article PMC12847411

Legend:
Assay in all cases: BLI
REGN10933 = molecular target: REGN10933
Sotrovimab = molecular target: Sotrovimab
REGN10987 = molecular target: REGN10987
AZD8895-450 = molecular target: AZD8895-450
AZD8895 = molecular target: AZD8895
MW05 = molecular target: MW05
AZD8895-275 = molecular target: AZD8895-275
AZD8895-25 = molecular target: AZD8895-25
Sequence of AZD8895-25 (heavy, as listed by the source, chain 1 of 2): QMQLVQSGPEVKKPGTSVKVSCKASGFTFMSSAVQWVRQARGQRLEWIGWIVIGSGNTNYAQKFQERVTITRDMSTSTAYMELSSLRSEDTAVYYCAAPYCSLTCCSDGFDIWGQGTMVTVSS
Sequence of AZD8895-25 (light, as listed by the source, chain 2 of 2): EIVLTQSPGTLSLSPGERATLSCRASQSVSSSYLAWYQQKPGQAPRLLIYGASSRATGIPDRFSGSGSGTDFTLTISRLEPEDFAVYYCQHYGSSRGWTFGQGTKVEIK

Sequence of AZD8895-450 (heavy, as listed by the source, chain 1 of 2): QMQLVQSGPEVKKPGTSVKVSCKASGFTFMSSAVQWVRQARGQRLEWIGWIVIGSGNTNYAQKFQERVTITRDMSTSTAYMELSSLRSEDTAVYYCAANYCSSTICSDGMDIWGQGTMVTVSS
Sequence of AZD8895 (heavy, as listed by the source, chain 1 of 2): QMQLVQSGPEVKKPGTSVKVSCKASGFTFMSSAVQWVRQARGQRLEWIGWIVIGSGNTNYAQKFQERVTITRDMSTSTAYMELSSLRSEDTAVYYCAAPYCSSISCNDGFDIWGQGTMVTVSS
Sequence of REGN10987 (heavy, as listed by the source, chain 1 of 2): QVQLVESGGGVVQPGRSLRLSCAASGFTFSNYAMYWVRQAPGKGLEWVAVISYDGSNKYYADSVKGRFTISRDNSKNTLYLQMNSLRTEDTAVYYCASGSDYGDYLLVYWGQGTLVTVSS
Sequence of REGN10987 (light, as listed by the source, chain 2 of 2): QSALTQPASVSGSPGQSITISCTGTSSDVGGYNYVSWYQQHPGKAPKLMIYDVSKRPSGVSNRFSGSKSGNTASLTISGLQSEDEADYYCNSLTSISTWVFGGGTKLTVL
Sequence of REGN10933 (heavy, as listed by the source, chain 1 of 2): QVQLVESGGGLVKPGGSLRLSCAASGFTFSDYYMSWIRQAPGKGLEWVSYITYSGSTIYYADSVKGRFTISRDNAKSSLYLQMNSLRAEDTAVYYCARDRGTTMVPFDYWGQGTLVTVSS
Sequence of REGN10933 (light, as listed by the source, chain 2 of 2): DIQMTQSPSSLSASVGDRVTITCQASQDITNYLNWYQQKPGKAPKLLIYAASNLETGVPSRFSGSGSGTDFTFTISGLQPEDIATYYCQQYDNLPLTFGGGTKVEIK
Sequence of AZD8895-275 (heavy, as listed by the source, chain 1 of 2): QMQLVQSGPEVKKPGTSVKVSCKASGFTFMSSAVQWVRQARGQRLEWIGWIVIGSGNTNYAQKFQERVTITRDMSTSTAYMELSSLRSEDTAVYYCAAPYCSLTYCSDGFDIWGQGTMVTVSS
Sequence of MW05 (light, as listed by the source): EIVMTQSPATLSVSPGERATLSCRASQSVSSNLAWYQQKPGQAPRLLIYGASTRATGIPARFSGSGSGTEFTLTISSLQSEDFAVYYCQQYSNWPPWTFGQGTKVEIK

“SARS-CoV-2 spike RBD protein (Sino Biological, 40592-V08H) (from UniProt P0DTC2) (domain or fragment)” showed a Kd (REGN10933) of 6.7 nM, a Kd (Sotrovimab) of 1.42 nM and a Kd (REGN10987) of 5.92 nM. The Kd (AZD8895-450) was 7.33 nM, the Kd (AZD8895) was 6.71 nM and the Kd (MW05) was 1.89 nM. For the same substance, the Kd (AZD8895-275) was 5.17 nM and the Kd (AZD8895-25) was 4.81 nM.
